Source: US20150093398A1, “Methods and Compositions for Treating or Preventing Cancer” (MERCK SHARP & DOHME CORP., priority 2005, published 2015)

Legend:
[1] = test system: SJSA-1 osteosarcoma cells; assay: SJSA-1 osteosarcoma xenograft model (05-IGFR-21), dosing from 15 days after inoculation; format: in vivo, female nude mouse (strain NU/NU)
Description: Xenograft tumor size was measured twice per week with a caliper and captured electronically by the LabCat program. […] For the experiments set forth in Table 9, dosing was initiated 15 days after inoculation. […] Xenograft tumor size was measured twice per week with a caliper and captured electronically by the LabCat program.

[2] = test system: SJSA-1 osteosarcoma cells; assay: SJSA-1 osteosarcoma xenograft model (05-IGFR-12), dosing from day 18 post inoculation; format: in vivo, female nude mouse (strain NU/NU)
Description: About 7 million SJSA-1 osteosarcoma cells were inoculated subcutaneously to the flank of each female nude mouse (strain NU/NU from Charles River, age ˜6 wks-old, average weight ˜20 gram). For the experiment set forth in Table 8, dosing was initiated on day 18 post inoculation, when the xenograft tumor reached an average size of about 100 mm^3. Anti-IGF1R antibody (19D12 Light chain F/Heavy chain A (as set forth above)) was given ip twice a week at the dose of either 0.02 mg, 0.1 and 0.5 mg per mouse, while cytotoxic Cytoxan (cyclophosphamide) was given ip twice per week at the dose of 100 mpk for a total of 3 injection during the course of the study. Xenograft tumor size was measured twice per week with a caliper and captured electronically by the LabCat program.

[3] = test system: SK-N-MC neuroblastoma cells; assay: SK-N-MC neuroblastoma xenograft tumor growth in mice (04 IGFR-13, 19D12 vs. Cisplatin); format: in vivo, Athymic nude mice
[4] = test system: SK-N-AS neuroblatoma cells; assay: SK-N-AS neuroblastoma xenograft tumor growth in mice (03 IGFR-09, 19D12 vs. Cytoxan); format: in vivo, Athymic nude mice
Description: (§1) Athymic nude mice were inoculated with tumor cells in the right flank, subcutaneously, along with Matrigel (1:1 cells:gel). In these experiments, 5×10^6 cells/mouse in a 1:1 mix with regular matrigel were inoculated subcutaneously. Tumor size was measured with calipers and the data was entered into the labcat program. Mice were grouped with average size of 100 mm^3. Tumor size and body weight were measured twice weekly.
(§2) In these experiments, mice were dosed twice per week, intraperitoneally (i.p.) with antibody 19D12 and chemotherapeutic agents at the indicated frequency. Tumor size and mouse body weight was measured twice weekly after treatment.

[5] = test system: SJCRH30 rhabdomyosarcoma cells; assay: SJCRH30 rhabdomyosarcoma xenograft tumor growth in mice (05 IGFR-01, 19D12 and Cytoxan); format: in vivo, Athymic nude mice
Description: as §1, §2

[6] = test system: SK-N-FI neuroblastoma cells; assay: SK-N-FI neuroblastoma xenograft tumor growth in mice (04 IGFR-20); format: in vivo, Athymic nude mice

B1: 19D12: anti-IGF1R antibody: light chain variable region amino acids 20-128 of SEQ ID NO: 8, heavy chain variable region amino acids 20-137 of SEQ ID NO: 10 (antibody, V domains shown)
VL: MSPSQLIGFLLLWVPASRGEIVLTQSPGTLSVSPGERATLSCRASQSIGSSLHWYQQKPGQAPRLLIKYASQSLSGIPDRFSGSGSGTDFTLTISRLEPEDFAVYYCHQSSRLPHTFGQGTKVEIKRT
VH: MEFGLSWVFLVAILKGVQCEVQLVQSGGGLVKPGGSLRLSCAASGFTFSSFAMHWVRQAPGKGLEWISVIDTRGATYYADSVKGRFTISRDNAKNSLYLQMNSLRAEDTAVYYCARLGNFYYGMDVWGQGTTVTVSS
modifications: variable regions only: LC 20-128, HC 20-137; constant regions lack entries
Mean Tumor size ([1]; 0.04 mg 19D12, Day 0): 142 mm3
Mean Tumor size ([1]; 0.04 mg 19D12, Day 4): 153 mm3
Mean Tumor size ([1]; 0.04 mg 19D12, Day 7): 222 mm3
Mean Tumor size ([1]; 0.04 mg 19D12, Day 11): 306 mm3
Mean Tumor size ([1]; 0.04 mg 19D12, Day 14): 431 mm3
Mean Tumor size ([1]; 0.1 mg 19D12, Day 0): 145 mm3
Mean Tumor size ([1]; 0.1 mg 19D12, Day 4): 147 mm3
Mean Tumor size ([1]; 0.1 mg 19D12, Day 7): 151 mm3
Mean Tumor size ([1]; 0.1 mg 19D12, Day 11): 212 mm3
Mean Tumor size ([1]; 0.1 mg 19D12, Day 14): 251 mm3
regression of tumor volume (in words) ([1]; ip twice a week, 0.04 or 0.1 mg per mouse, with Cytoxan 50 or 100 mpk once a week, summary of Table 9): anti-IGF1R-dependent regression of tumor volume
Mean Tumor size ([2]; 0.02 mg 19D12, Day 0): 98 mm3
Mean Tumor size ([2]; 0.02 mg 19D12, Day 3): 121 mm3
Mean Tumor size ([2]; 0.02 mg 19D12, Day 7): 197 mm3
Mean Tumor size ([2]; 0.02 mg 19D12, Day 10): 272 mm3
Mean Tumor size ([2]; 0.02 mg 19D12, Day 14): 423 mm3
Mean Tumor size ([2]; 0.02 mg 19D12, Day 17): 675 mm3
Mean Tumor size ([2]; 0.1 mg 19D12, Day 0): 96 mm3
Mean Tumor size ([2]; 0.1 mg 19D12, Day 3): 121 mm3
Mean Tumor size ([2]; 0.1 mg 19D12, Day 7): 144 mm3
Mean Tumor size ([2]; 0.1 mg 19D12, Day 10): 231 mm3
Mean Tumor size ([2]; 0.1 mg 19D12, Day 14): 378 mm3
Mean Tumor size ([2]; 0.1 mg 19D12, Day 17): 431 mm3
Mean Tumor size ([2]; 0.1 mg 19D12, Day 21): 1037 mm3
Mean Tumor size ([2]; 0.5 mg 19D12, Day 0): 96 mm3
Mean Tumor size ([2]; 0.5 mg 19D12, Day 3): 103 mm3
Mean Tumor size ([2]; 0.5 mg 19D12, Day 7): 122 mm3
Mean Tumor size ([2]; 0.5 mg 19D12, Day 10): 115 mm3
Mean Tumor size ([2]; 0.5 mg 19D12, Day 14): 282 mm3
Mean Tumor size ([2]; 0.5 mg 19D12, Day 17): 435 mm3
Mean Tumor size ([2]; 0.5 mg 19D12, Day 21): 890 mm3
growth inhibition of the osteosarcoma tumor (in words) ([2]; ip twice a week, 0.02, 0.1 or 0.5 mg per mouse, summary of Table 8): marked anti-IGF1R-dependent growth inhibition
Tumor Average Size ([3]; 0.004 mg 19D12, Day 0): 89 mm^3
Tumor Average Size ([3]; 0.004 mg 19D12, Day 2): 120 mm^3
Tumor Average Size ([3]; 0.004 mg 19D12, Day 6): 146 mm^3
Tumor Average Size ([3]; 0.004 mg 19D12, Day 9): 177 mm^3
Tumor Average Size ([3]; 0.004 mg 19D12, Day 13): 212 mm^3
Tumor Average Size ([3]; 0.004 mg 19D12, Day 16): 235 mm^3
Tumor Average Size ([3]; 0.004 mg 19D12, Day 20): 292 mm^3
Tumor Average Size ([3]; 0.004 mg 19D12, Day 23): 331 mm^3
Tumor Average Size ([3]; 0.004 mg 19D12, Day 24): 331 mm^3
Tumor Average Size ([3]; 0.02 mg 19D12, Day 0): 97 mm^3
Tumor Average Size ([3]; 0.02 mg 19D12, Day 2): 122 mm^3
Tumor Average Size ([3]; 0.02 mg 19D12, Day 6): 151 mm^3
Tumor Average Size ([3]; 0.02 mg 19D12, Day 9): 189 mm^3
Tumor Average Size ([3]; 0.02 mg 19D12, Day 13): 222 mm^3
Tumor Average Size ([3]; 0.02 mg 19D12, Day 16): 248 mm^3
Tumor Average Size ([3]; 0.02 mg 19D12, Day 20): 292 mm^3
Tumor Average Size ([3]; 0.02 mg 19D12, Day 23): 344 mm^3
Tumor Average Size ([3]; 0.02 mg 19D12, Day 24): 344 mm^3
Tumor Average Size ([3]; 0.1 mg 19D12, Day 0): 89 mm^3
Tumor Average Size ([3]; 0.1 mg 19D12, Day 2): 115 mm^3
Tumor Average Size ([3]; 0.1 mg 19D12, Day 6): 144 mm^3
Tumor Average Size ([3]; 0.1 mg 19D12, Day 9): 193 mm^3
Tumor Average Size ([3]; 0.1 mg 19D12, Day 13): 226 mm^3
Tumor Average Size ([3]; 0.1 mg 19D12, Day 16): 245 mm^3
Tumor Average Size ([3]; 0.1 mg 19D12, Day 20): 282 mm^3
Tumor Average Size ([3]; 0.1 mg 19D12, Day 23): 335 mm^3
Tumor Average Size ([3]; 0.1 mg 19D12, Day 24): 335 mm^3
Tumor Average Size ([3]; 0.5 mg 19D12, Day 0): 83 mm^3
Tumor Average Size ([3]; 0.5 mg 19D12, Day 2): 107 mm^3
Tumor Average Size ([3]; 0.5 mg 19D12, Day 6): 133 mm^3
Tumor Average Size ([3]; 0.5 mg 19D12, Day 9): 173 mm^3
Tumor Average Size ([3]; 0.5 mg 19D12, Day 13): 210 mm^3
Tumor Average Size ([3]; 0.5 mg 19D12, Day 16): 234 mm^3
Tumor Average Size ([3]; 0.5 mg 19D12, Day 20): 264 mm^3
Tumor Average Size ([3]; 0.5 mg 19D12, Day 23): 317 mm^3
Tumor Average Size ([3]; 0.5 mg 19D12, Day 24): 317 mm^3
Tumor Average Size ([4]; 0.004 mg 19D12/IgG1, Day 4): 335 mm^3
Tumor Average Size ([4]; 0.004 mg 19D12/IgG1, Day 7): 568 mm^3
Tumor Average Size ([4]; 0.004 mg 19D12/IgG1, Day 11): 1314 mm^3
Tumor Average Size ([4]; 0.004 mg 19D12/IgG1, Day -1): 142 mm^3
Tumor Average Size ([4]; 0.02 mg 19D12/IgG1, Day 4): 231 mm^3
Tumor Average Size ([4]; 0.02 mg 19D12/IgG1, Day 7): 307 mm^3
Tumor Average Size ([4]; 0.02 mg 19D12/IgG1, Day 11): 547 mm^3
Tumor Average Size ([4]; 0.02 mg 19D12/IgG1, Day -1): 137 mm^3
Tumor Average Size ([4]; 0.1 mg 19D12/IgG1, Day 4): 249 mm^3
Tumor Average Size ([4]; 0.1 mg 19D12/IgG1, Day 7): 321 mm^3
Tumor Average Size ([4]; 0.1 mg 19D12/IgG1, Day 11): 615 mm^3
Tumor Average Size ([4]; 0.1 mg 19D12/IgG1, Day -1): 135 mm^3
Tumor Average Size ([4]; 0.5 mg 19D12/IgG1, Day 4): 205 mm^3
Tumor Average Size ([4]; 0.5 mg 19D12/IgG1, Day 7): 273 mm^3
Tumor Average Size ([4]; 0.5 mg 19D12/IgG1, Day 11): 492 mm^3
Tumor Average Size ([4]; 0.5 mg 19D12/IgG1, Day -1): 123 mm^3
Tumor Average Size ([5]; 0.02 mg 19D12, Day 0): 74 mm^3
Tumor Average Size ([5]; 0.02 mg 19D12, Day 4): 144 mm^3
Tumor Average Size ([5]; 0.02 mg 19D12, Day 7): 337 mm^3
Tumor Average Size ([5]; 0.02 mg 19D12, Day 11): 534 mm^3
Tumor Average Size ([5]; 0.02 mg 19D12, Day 14): 714 mm^3
Tumor Average Size ([5]; 0.02 mg 19D12, Day 18): 926 mm^3
Tumor Average Size ([5]; 0.1 mg 19D12, Day 0): 74 mm^3
Tumor Average Size ([5]; 0.1 mg 19D12, Day 4): 126 mm^3
Tumor Average Size ([5]; 0.1 mg 19D12, Day 7): 232 mm^3
Tumor Average Size ([5]; 0.1 mg 19D12, Day 11): 372 mm^3
Tumor Average Size ([5]; 0.1 mg 19D12, Day 14): 520 mm^3
Tumor Average Size ([5]; 0.1 mg 19D12, Day 18): 681 mm^3
Tumor Average Size ([5]; 1 mg 19D12, Day 0): 75 mm^3
Tumor Average Size ([5]; 1 mg 19D12, Day 4): 103 mm^3
Tumor Average Size ([5]; 1 mg 19D12, Day 7): 183 mm^3
Tumor Average Size ([5]; 1 mg 19D12, Day 11): 284 mm^3
Tumor Average Size ([5]; 1 mg 19D12, Day 14): 442 mm^3
Tumor Average Size ([5]; 1 mg 19D12, Day 18): 562 mm^3
Tumor Average Size ([6]; 0.02 mg 19D12, Day 0): 150 mm^3
Tumor Average Size ([6]; 0.02 mg 19D12, Day 5): 181 mm^3
Tumor Average Size ([6]; 0.02 mg 19D12, Day 8): 204 mm^3
Tumor Average Size ([6]; 0.02 mg 19D12, Day 12): 207 mm^3
Tumor Average Size ([6]; 0.02 mg 19D12, Day 15): 217 mm^3
Tumor Average Size ([6]; 0.02 mg 19D12, Day 19): 237 mm^3
Tumor Average Size ([6]; 0.02 mg 19D12, Day 22): 290 mm^3
Tumor Average Size ([6]; 0.1 mg 19D12, Day 0): 151 mm^3
Tumor Average Size ([6]; 0.1 mg 19D12, Day 5): 164 mm^3
Tumor Average Size ([6]; 0.1 mg 19D12, Day 8): 146 mm^3
Tumor Average Size ([6]; 0.1 mg 19D12, Day 12): 154 mm^3
Tumor Average Size ([6]; 0.1 mg 19D12, Day 15): 141 mm^3
Tumor Average Size ([6]; 0.1 mg 19D12, Day 19): 154 mm^3
Tumor Average Size ([6]; 0.1 mg 19D12, Day 22): 170 mm^3
Tumor Average Size ([6]; 1 mg 19D12, Day 0): 155 mm^3
Tumor Average Size ([6]; 1 mg 19D12, Day 5): 161 mm^3
Tumor Average Size ([6]; 1 mg 19D12, Day 8): 128 mm^3
Tumor Average Size ([6]; 1 mg 19D12, Day 12): 126 mm^3
Tumor Average Size ([6]; 1 mg 19D12, Day 15): 118 mm^3
Tumor Average Size ([6]; 1 mg 19D12, Day 19): 117 mm^3
Tumor Average Size ([6]; 1 mg 19D12, Day 22): 122 mm^3
